Data on three molecules can be found in doi:10.1101/2021.06.30.450611.

This assay deals with Taxol-stabilised microtubules assembled from pig tubulin (single molecule motility assay) (pig). The experiment in a line: single molecule TIRF motility assay.

B1: full-length recombinant human KIF1C-GFP (wildtype) (natural protein)
chain: MAGASVKVAVRVRPFNARETSQDAKCVVSMQGNTTSIINPKQSKDAPKSFTFDYSYWSHTSTEDPQFASQQQVYRDIGEEMLLHAFEGYNVCIFAYGQTGAGKSYTMMGRQEPGQQGIVPQLCEDLFSRVSENQSAQLSYSVEVSYMEIYCERVRDLLNPKSRGSLRVREHPILGPYVQDLSKLAVTSYADIADLMDCGNKARTVAATNMNETSSRSHAVFTIVFTQRCHDQLTGLDSEKVSKISLVDLAGSERADSSGARGMRLKEGANINKSLTTLGKVISALADMQSKKRKSDFIPYRDSVLTWLLKENLGGNSRTAMIAALSPADINYEETLSTLRYADRTKQIRCNAIINEDPNARLIRELQEEVARLRELLMAQGLSASALEGLKTEEGSVRGALPAVSSPPAPVSPSSPTTHNGELEPSFSPNTESQIGPEEAMERLQETEKIIAELNETWEEKLRKTEALRMEREALLAEMGVAVREDGGTVGVFSPKKTPHLVNLNEDPLMSECLLYHIKDGVTRVGQVDMDIKLTGQFIREQHCLFRSIPQPDGEVVVTLEPCEGAETYVNGKLVTEPLVLKSGNRIVMGKNHVFRFNHPEQARLERERGVPPPPGPPSEPVDWNFAQKELLEQQGIDIKLEMEKRLQDLENQYRKEKEEADLLLEQQRLYADSDSGDDSDKRSCEESWRLISSLREQLPPTTVQTIVKRCGLPSSGKRRAPRRVYQIPQRRRLQGKDPRWATMADLKMQAVKEICYEVALADFRHGRAEIEALAALKMRELCRTYGKPDGPGDAWRAVARDVWDTVGEEEGGGAGSGGGSEEGARGAEVEDLRAHIDKLTGILQEVKLQNSSKDRELQALRDRMLRMERVIPLAQDHEDENEEGGEVPWAPPEGSEAAEEAAPSDRMPSARPPSPPLSSWERVSRLMEEDPAFRRGRLRWLKQEQLRLQGLQGSGGRGGGLRRPPARFVPPHDCKLRFPFKSNPQHRESWPGMGSGEAPTPLQPPEEVTPHPATPARRPPSPRRSHHPRRNSLDGGGRSRGAGSAQPEPQHFQPKKHNSYPQPPQPYPAQRPPGPRYPPYTTPPRMRRQRSAPDLKESGAAV
B1 displayed a dwell time of 36.3 s.

B2: full-length recombinant human KIF1C(R169W)-GFP (natural protein)
chain: MAGASVKVAVRVRPFNARETSQDAKCVVSMQGNTTSIINPKQSKDAPKSFTFDYSYWSHTSTEDPQFASQQQVYRDIGEEMLLHAFEGYNVCIFAYGQTGAGKSYTMMGRQEPGQQGIVPQLCEDLFSRVSENQSAQLSYSVEVSYMEIYCERVRDLLNPKSRGSLRVWEHPILGPYVQDLSKLAVTSYADIADLMDCGNKARTVAATNMNETSSRSHAVFTIVFTQRCHDQLTGLDSEKVSKISLVDLAGSERADSSGARGMRLKEGANINKSLTTLGKVISALADMQSKKRKSDFIPYRDSVLTWLLKENLGGNSRTAMIAALSPADINYEETLSTLRYADRTKQIRCNAIINEDPNARLIRELQEEVARLRELLMAQGLSASALEGLKTEEGSVRGALPAVSSPPAPVSPSSPTTHNGELEPSFSPNTESQIGPEEAMERLQETEKIIAELNETWEEKLRKTEALRMEREALLAEMGVAVREDGGTVGVFSPKKTPHLVNLNEDPLMSECLLYHIKDGVTRVGQVDMDIKLTGQFIREQHCLFRSIPQPDGEVVVTLEPCEGAETYVNGKLVTEPLVLKSGNRIVMGKNHVFRFNHPEQARLERERGVPPPPGPPSEPVDWNFAQKELLEQQGIDIKLEMEKRLQDLENQYRKEKEEADLLLEQQRLYADSDSGDDSDKRSCEESWRLISSLREQLPPTTVQTIVKRCGLPSSGKRRAPRRVYQIPQRRRLQGKDPRWATMADLKMQAVKEICYEVALADFRHGRAEIEALAALKMRELCRTYGKPDGPGDAWRAVARDVWDTVGEEEGGGAGSGGGSEEGARGAEVEDLRAHIDKLTGILQEVKLQNSSKDRELQALRDRMLRMERVIPLAQDHEDENEEGGEVPWAPPEGSEAAEEAAPSDRMPSARPPSPPLSSWERVSRLMEEDPAFRRGRLRWLKQEQLRLQGLQGSGGRGGGLRRPPARFVPPHDCKLRFPFKSNPQHRESWPGMGSGEAPTPLQPPEEVTPHPATPARRPPSPRRSHHPRRNSLDGGGRSRGAGSAQPEPQHFQPKKHNSYPQPPQPYPAQRPPGPRYPPYTTPPRMRRQRSAPDLKESGAAV
The molecule B2 registered a dwell time of 16 s.

B3: full-length recombinant human KIF1C(P176L)-GFP (natural protein)
chain: MAGASVKVAVRVRPFNARETSQDAKCVVSMQGNTTSIINPKQSKDAPKSFTFDYSYWSHTSTEDPQFASQQQVYRDIGEEMLLHAFEGYNVCIFAYGQTGAGKSYTMMGRQEPGQQGIVPQLCEDLFSRVSENQSAQLSYSVEVSYMEIYCERVRDLLNPKSRGSLRVREHPILGLYVQDLSKLAVTSYADIADLMDCGNKARTVAATNMNETSSRSHAVFTIVFTQRCHDQLTGLDSEKVSKISLVDLAGSERADSSGARGMRLKEGANINKSLTTLGKVISALADMQSKKRKSDFIPYRDSVLTWLLKENLGGNSRTAMIAALSPADINYEETLSTLRYADRTKQIRCNAIINEDPNARLIRELQEEVARLRELLMAQGLSASALEGLKTEEGSVRGALPAVSSPPAPVSPSSPTTHNGELEPSFSPNTESQIGPEEAMERLQETEKIIAELNETWEEKLRKTEALRMEREALLAEMGVAVREDGGTVGVFSPKKTPHLVNLNEDPLMSECLLYHIKDGVTRVGQVDMDIKLTGQFIREQHCLFRSIPQPDGEVVVTLEPCEGAETYVNGKLVTEPLVLKSGNRIVMGKNHVFRFNHPEQARLERERGVPPPPGPPSEPVDWNFAQKELLEQQGIDIKLEMEKRLQDLENQYRKEKEEADLLLEQQRLYADSDSGDDSDKRSCEESWRLISSLREQLPPTTVQTIVKRCGLPSSGKRRAPRRVYQIPQRRRLQGKDPRWATMADLKMQAVKEICYEVALADFRHGRAEIEALAALKMRELCRTYGKPDGPGDAWRAVARDVWDTVGEEEGGGAGSGGGSEEGARGAEVEDLRAHIDKLTGILQEVKLQNSSKDRELQALRDRMLRMERVIPLAQDHEDENEEGGEVPWAPPEGSEAAEEAAPSDRMPSARPPSPPLSSWERVSRLMEEDPAFRRGRLRWLKQEQLRLQGLQGSGGRGGGLRRPPARFVPPHDCKLRFPFKSNPQHRESWPGMGSGEAPTPLQPPEEVTPHPATPARRPPSPRRSHHPRRNSLDGGGRSRGAGSAQPEPQHFQPKKHNSYPQPPQPYPAQRPPGPRYPPYTTPPRMRRQRSAPDLKESGAAV
B3: the dwell time was determined as 25.8 s.
